Experimental data from the supplement of paper PMC10567573.

B1: RIT1 (parent)
chain: FHALVREIRRKEKEAVLAMEKKSK
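Further: lentivirally expressed fusions sorted by FACS into six bins by GFP to DsRed ratio, PSI derived from sequencing read proportions per bin multiplied by bin number.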

Variants of: B1
Assay: protein stability index of a GFP-peptide fusion (GPS, HEK-293T) (PSI 1-6); higher = more stable
Details: c terminus: a fixed tail appended
With FHALVREIRRKEKMAVLAMEKKSK [E14M] the protein stability index was 2.1.
Variant FHALVREIRRKEKRAVLAMEKKSK [E14R] has a protein stability index of 1.84.
With FHALVREIRRKEKWAVLAMEKKSK [E14W] the protein stability index was 2.42.
FHALVREIRRKEKNAVLAMEKKSK [E14N] gave a protein stability index of 1.62.
FHALVREIRRKEKTAVLAMEKKSK [E14T] gave a protein stability index of 1.93.
With FHALVREIRRKEKQAVLAMEKKSK [E14Q] the protein stability index was 1.55.
With FHALVREIRRKEKPAVLAMEKKSK [E14P] the protein stability index was 1.73.
In the case of FHALVREIRRKEKVAVLAMEKKSK [E14V], the protein stability index is reported as 1.9.
With FHALVREIRRKEKSAVLAMEKKSK [E14S] the protein stability index was 1.8.
For FHALVREIRRKEKIAVLAMEKKSK [E14I], the protein stability index was 1.85.
Work on FHALVREIRRKEKKAVLAMEKKSK [E14K] yielded a protein stability index of 2.89.
For FHALVREIRRKEKYAVLAMEKKSK [E14Y], the protein stability index was 2.17.
In the case of FHALVREIRRKEKEAVLAGEKKSK [M19G], the protein stability index is reported as 2.23.
Variant FHALVREIRRKEKEAVLAEEKKSK [M19E] has a protein stability index of 1.88.
For FHALVREIRRKEKEAVLAYEKKSK [M19Y], the protein stability index was 1.76.
Variant FHALVREIRRKEKEAVLAHEKKSK [M19H] has a protein stability index of 1.35.
For FHALVREIRRKEKEAVLAKEKKSK [M19K], the protein stability index was 2.17.
Work on FHALVREIRRKEKEAVLAREKKSK [M19R] yielded a protein stability index of 2.3.
With FHALVREIRRKEKEAVLAIEKKSK [M19I] the protein stability index was 1.24.
FHALVREIRRKEKEAVLAQEKKSK [M19Q] gave a protein stability index of 1.44.
With FHALVREIRRKEKEAVLAAEKKSK [M19A] the protein stability index was 1.68.
With FHALVREIRRKEKEAVLALEKKSK [M19L] the protein stability index was 3.14.
Work on FHALVREIRRKEKEAVLANEKKSK [M19N] yielded a protein stability index of 2.14.
For FHALVREIRRKEKEAVLADEKKSK [M19D], the protein stability index was 2.04.
FHALVREIRRKEKEAVLAPEKKSK [M19P] showed a protein stability index of 1.7.
FHALVREIRRKEKEAVLASEKKSK [M19S] gave a protein stability index of 1.79.
Work on FHALVREIRRKEKEAVLAFEKKSK [M19F] yielded a protein stability index of 2.23.
Work on FHALVREIRRKEKEAVLAVEKKSK [M19V] yielded a protein stability index of 1.79.
Work on FHALVREIRRKEKEAVLATEKKSK [M19T] yielded a protein stability index of 1.78.
With FHALVREIRRKEKEAVLAWEKKSK [M19W] the protein stability index was 1.53.
Work on FHALVREIRRKEKEAVLWMEKKSK [A18W] yielded a protein stability index of 1.68.
FHALVREIRRKEKEAVLLMEKKSK [A18L] gave a protein stability index of 1.66.
For FHALVREIRRKEKEAVLPMEKKSK [A18P], the protein stability index was 1.23.
With FHALVREIRRKEKEAVLRMEKKSK [A18R] the protein stability index was 2.11.
In the case of FHALVREIRRKEKEAVLEMEKKSK [A18E], the protein stability index is reported as 1.22.
FHALVREIRRKEKEAVLVMEKKSK [A18V] gave a protein stability index of 1.84.
Work on FHALVREIRRKEKEAVLFMEKKSK [A18F] yielded a protein stability index of 2.15.
In the case of FHALVREIRRKEKEAVLYMEKKSK [A18Y], the protein stability index is reported as 1.18.
In the case of FHALVREIRRKEKEAVLIMEKKSK [A18I], the protein stability index is reported as 1.69.
With FHALVREIRRKEKEAVLDMEKKSK [A18D] the protein stability index was 1.96.
FHALVREIRRKEKEAVLTMEKKSK [A18T] gave a protein stability index of 1.91.
FHALVREIRRKEKEAVLCMEKKSK [A18C] gave a protein stability index of 1.89.
Variant FHALVREIRRKEKEAVLSMEKKSK [A18S] has a protein stability index of 2.26.
FHALVREIRRKEKEAVLGMEKKSK [A18G] showed a protein stability index of 1.71.
Variant FHALVREIRRKEKEAVLMMEKKSK [A18M] has a protein stability index of 2.08.
With FHALVREIRRKEKEAVLHMEKKSK [A18H] the protein stability index was 2.85.
FHALVREIRRKEKEAVLNMEKKSK [A18N] gave a protein stability index of 3.42.
Variant FHALVREIRRKEKEAVLKMEKKSK [A18K] has a protein stability index of 2.5.
With FHALVREIRRKEKEAVLQMEKKSK [A18Q] the protein stability index was 1.95.
Variant FHALVREIRRKEKEAVLAMEKKSH [K24H] has a protein stability index of 1.86.
In the case of FHALVREIRRKEKEAVLAMEKKSA [K24A], the protein stability index is reported as 1.91.
For FHALVREIRRKEKEAVLAMEKKSG [K24G], the protein stability index was 2.4.
In the case of FHALVREIRRKEKEAVLAMEKKSF [K24F], the protein stability index is reported as 1.77.
With FHALVREIRRKEKEAVLAMEKKSE [K24E] the protein stability index was 1.95.
FHALVREIRRKEKEAVLAMEKKSM [K24M] gave a protein stability index of 1.78.
With FHALVREIRRKEKEAVLAMEKKSL [K24L] the protein stability index was 1.99.
In the case of FHALVREIRRKEKEAVLAMEKKSC [K24C], the protein stability index is reported as 2.24.
In the case of FHALVREIRRKEKEAVLAMEKKSI [K24I], the protein stability index is reported as 2.5.
In the case of FHALVREIRRKEKEAVLAMEKKSD [K24D], the protein stability index is reported as 1.83.
With FHALVREIRRKEKEATLAMEKKSK [V16T] the protein stability index was 1.57.
With FHALVREIRRKEKEADLAMEKKSK [V16D] the protein stability index was 1.3.
For FHALVREIRRKEKEARLAMEKKSK [V16R], the protein stability index was 2.69.
FHALVREIRRKEKEAFLAMEKKSK [V16F] showed a protein stability index of 2.45.
For FHALVREIRRKEKEAKLAMEKKSK [V16K], the protein stability index was 1.81.
With FHALVREIRRKEKEAMLAMEKKSK [V16M] the protein stability index was 1.66.
Variant FHALVREIRRKEKEAALAMEKKSK [V16A] has a protein stability index of 2.26.
Variant FHALVREIRRKEKEAILAMEKKSK [V16I] has a protein stability index of 1.36.
For FHALVREIRRKEKEAQLAMEKKSK [V16Q], the protein stability index was 2.22.
FHALVREIRRKEKEANLAMEKKSK [V16N] gave a protein stability index of 1.42.
FHALVREIRRKEKEAELAMEKKSK [V16E] gave a protein stability index of 2.59.
For FHALVREIRRKEKEAWLAMEKKSK [V16W], the protein stability index was 2.27.
In the case of FHALVREIRRKEKEALLAMEKKSK [V16L], the protein stability index is reported as 2.05.
Work on FHALVREIRRKEKEASLAMEKKSK [V16S] yielded a protein stability index of 2.64.
Work on FHALVREIRRKEKEAYLAMEKKSK [V16Y] yielded a protein stability index of 1.95.
FHALVREIRRKEKEAGLAMEKKSK [V16G] gave a protein stability index of 1.7.
FHALVREIRRKEKEAHLAMEKKSK [V16H] showed a protein stability index of 2.47.
With FHALVREIRRKEKEAPLAMEKKSK [V16P] the protein stability index was 2.62.
FHALVREIRRKEKEAVLAMAKKSK [E20A] gave a protein stability index of 2.07.
FHALVREIRRKEKEAVLAMKKKSK [E20K] showed a protein stability index of 2.08.
FHALVREIRRKEKEAVLAMYKKSK [E20Y] gave a protein stability index of 2.35.
FHALVREIRRKEKEAVLAMNKKSK [E20N] gave a protein stability index of 1.88.
FHALVREIRRKEKEAVLAMGKKSK [E20G] gave a protein stability index of 1.41.
With FHALVREIRRKEKEAVLAMQKKSK [E20Q] the protein stability index was 1.65.
With FHALVREIRRKEKEAVLAMRKKSK [E20R] the protein stability index was 2.59.
For FHALVREIRRKEKEAVLAMPKKSK [E20P], the protein stability index was 2.42.
Work on FHALVREIRRKEKEAVLAMDKKSK [E20D] yielded a protein stability index of 2.17.
Work on FHALVREIRRKEKEAVLAMHKKSK [E20H] yielded a protein stability index of 2.12.
For FHALVREIRRKEKEAVLAMMKKSK [E20M], the protein stability index was 2.08.
In the case of FHALVREIRRKEKEAVLAMCKKSK [E20C], the protein stability index is reported as 1.52.
With FHALVREIRRKEKEAVLAMFKKSK [E20F] the protein stability index was 2.18.
In the case of FHALVREIRRKEKEAVLAMVKKSK [E20V], the protein stability index is reported as 2.52.
Variant FHALVREIRRKEKEAVLAMSKKSK [E20S] has a protein stability index of 2.53.
Variant FHALVREIRRKEKEAVLAMIKKSK [E20I] has a protein stability index of 1.94.
In the case of FHALVREIRRKEKEAVLAMTKKSK [E20T], the protein stability index is reported as 1.92.
